{"source": "IntAct's records for PubMed 24879834", "parents": {"B1": {"name": "TBC1 domain family member 1 (Homo sapiens), Q86TI0 (parent)", "chain": "MEPITFTARKHLLSNEVSVDFGLQLVGSLPVHSLTTMPMLPWVVAEVRRLSRQSTRKEPVTKQVRLCVSPSGLRCEPEPGRSQQWDPLIYSSIFECKPQRVHKLIHNSHDPSYFACLIKEDAVHRQSICYVFKADDQTKVPEIISSIRQAGKIARQEELHCPSEFDDTFSKKFEVLFCGRVTVAHKKAPPALIDECIEKFNHVSGSRGSESPRPNPPHAAPTGSQEPVRRPMRKSFSQPGLRSLAFRKELQDGGLRSSGFFSSFEESDIENHLISGHNIVQPTDIEENRTMLFTIGQSEVYLISPDTKKIALEKNFKEISFCSQGIRHVDHFGFICRESSGGGGFHFVCYVFQCTNEALVDEIMMTLKQAFTVAAVQQTAKAPAQLCEGCPLQSLHKLCERIEGMNSSKTKLELQKHLTTLTNQEQATIFEEVQKLRPRNEQRENELIISFLRCLYEEKQKEHIHIGEMKQTSQMAAENIGSELPPSATRFRLDMLKNKAKRSLTESLESILSRGNKARGLQEHSISVDLDSSLSSTLSNTSKEPSVCEKEALPISESSFKLLGSSEDLSSDSESHLPEEPAPLSPQQAFRRRANTLSHFPIECQEPPQPARGSPGVSQRKLMRYHSVSTETPHERKDFESKANHLGDSGGTPVKTRRHSWRQQIFLRVATPQKACDSSSRYEDYSELGELPPRSPLEPVCEDGPFGPPPEEKKRTSRELRELWQKAILQQILLLRMEKENQKLQASENDLLNKRLKLDYEEITPCLKEVTTVWEKMLSTPGRSKIKFDMEKMHSAVGQGVPRHHRGEIWKFLAEQFHLKHQFPSKQQPKDVPYKELLKQLTSQQHAILIDLGRTFPTHPYFSAQLGAGQLSLYNILKAYSLLDQEVGYCQGLSFVAGILLLHMSEEEAFKMLKFLMFDMGLRKQYRPDMIILQIQMYQLSRLLHDYHRDLYNHLEEHEIGPSLYAAPWFLTMFASQFPLGFVARVFDMIFLQGTEVIFKVALSLLGSHKPLILQHENLETIVDFIKSTLPNLGLVQMEKTINQVFEMDIAKQLQAYEVEYHVLQEELIDSSPLSDNQRMDKLEKTNSSLRKQNLDLLEQLQVANGRIQSLEATIEKLLSSESKLKQAMLTLELERSALLQTVEELRRRSAEPSDREPECTQPEPTGD", "partner": "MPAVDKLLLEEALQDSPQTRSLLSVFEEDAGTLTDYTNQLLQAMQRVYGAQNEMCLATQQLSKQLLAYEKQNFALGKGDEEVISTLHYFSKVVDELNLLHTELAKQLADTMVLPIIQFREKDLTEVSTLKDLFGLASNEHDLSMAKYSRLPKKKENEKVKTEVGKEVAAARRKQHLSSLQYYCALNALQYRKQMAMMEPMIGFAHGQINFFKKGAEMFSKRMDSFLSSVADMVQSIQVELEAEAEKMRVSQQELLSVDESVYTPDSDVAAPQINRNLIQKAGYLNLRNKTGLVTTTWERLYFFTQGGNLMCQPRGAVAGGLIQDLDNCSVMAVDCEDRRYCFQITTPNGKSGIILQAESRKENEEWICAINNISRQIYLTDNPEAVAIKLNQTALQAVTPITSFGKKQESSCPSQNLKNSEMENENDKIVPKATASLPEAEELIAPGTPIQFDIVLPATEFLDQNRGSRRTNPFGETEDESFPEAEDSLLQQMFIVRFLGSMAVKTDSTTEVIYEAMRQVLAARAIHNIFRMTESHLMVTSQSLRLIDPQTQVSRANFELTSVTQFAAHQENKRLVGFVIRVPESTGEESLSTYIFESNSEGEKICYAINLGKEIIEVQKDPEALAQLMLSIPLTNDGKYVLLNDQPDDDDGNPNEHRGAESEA"}}}
{"variants_of": "B1", "details": "with dp13b_human APPL2, Q8NEU8"}
{"variant": "S235A", "effect of a mutation on the interaction": "disrupting interaction strength"}
{"variant": "S237A", "effect of a mutation on the interaction": "with no effect"}
